In assay [1] the target is T1, Recombinant human Avi_PCSK9_Flag_His (human, UniProt Q8NBP7 31-692, biotinylated in the HTRF and LDL-R competition assays).
T1 construct: In-house protein; also called human PCSK9; huPCSK9
Put plainly: HTRF epitope competition: unlabelled compound titrated against a DyLight 650-labelled anti-PCSK9 antibody for biotinylated human PCSK9; % specific binding [panel C].
Experimental: (§1) PCSK9 activity of each peptide-antibody fusions was assessed using Homogenous Time Resolved Fluorescence (HTRF) epitope competition assays.
(§2) For the assay all samples and reagents were prepared in assay buffer containing 1X Phosphate Buffered Saline, 0.1% BSA (Sigma A9576) and 0.4M Potassium Fluoride. Test samples of peptide-antibody fusions or control antibodies were prepared in 384 well polypropylene plates by 3-fold serial dilutions. […] Delta F% was then calculated using the following equation.

Assay [2] deals with T1, Recombinant human Avi_PCSK9_Flag_His. Put plainly: binding ELISA on coated human PCSK9 (10 ug/mL), compound at 100 ug/mL, detection with cryptate labelled Fc specific anti human IgG.
Experimental: (§3) After plate blocking with 1× Phosphate Buffered Saline, 3% skimmed milk, compounds were added at 100 ug/mL in PBS and incubated for 2 h at room temperature before washing. Bound compounds were detected using cryptate labelled Fc specific anti human IgG (Perkin Elmer) diluted at 100 ng/mL in Delfia Buffer (Perkin Elmer).
For assay [3] the target is unchanged. Put plainly: HTRF epitope competition: unlabelled compound titrated against a DyLight 650-labelled anti-PCSK9 antibody for biotinylated human PCSK9; % specific binding [panel A].
Experimental: as §1, §2
For assay [4] the target is unchanged. Nature of the assay: binding ELISA: human PCSK9 coated at 10 ug/mL, compound at 100 ug/mL, detection with cryptate-labelled Fc-specific anti-human IgG; fluorescence counts. In general terms: In an ELISA, binding on a coated surface is turned into a signal by an enzyme label.
Experimental: as §3
Assay [5] has the same target. Put plainly: HTRF epitope competition: unlabelled compound titrated against a DyLight 650-labelled anti-PCSK9 antibody for biotinylated human PCSK9; % specific binding.
Experimental: as §1, §2
For assay [6] the target is unchanged. Nature of the assay: HTRF epitope competition: unlabelled compound titrated against a DyLight 650-labelled anti-PCSK9 antibody for biotinylated human PCSK9; % specific binding [panel A]. The source holds these as a separate data set. A general note: TR-FRET usually uses a lanthanide donor and a delayed reading to cut background.
Experimental: as §1, §2
The target is the same in assay [7]. Put plainly: HTRF epitope competition: unlabelled compound titrated against a DyLight 650-labelled anti-PCSK9 antibody for biotinylated human PCSK9; % specific binding [panel E].
Experimental: as §1, §2
Assay [8] has the same target.
Assay [9] deals with T2, recombinant human B7-H1 (in house) (human, UniProt Q9NZQ7 19-238, limits assumed). Put plainly: binding ELISA on coated human B7-H1 (5 ug/mL), compound at 10 ug/mL, detection with cryptate labelled Fc specific anti human IgG.
Experimental: (§4) Binding ELISA was performed by coating human B7-H1 (in house) at 5 ug/mL in 1× Phosphate Buffered Saline. After plate blocking with 1×Phosphate Buffered Saline, 3% skimmed milk, compounds were added at 10 ug/mL in PBS and incubated for 2 h at room temperature before washing.
Assay [10] concerns the target T2, recombinant human B7-H1 (in house). Nature of the assay: binding ELISA on coated human B7-H1 (5 ug/mL), compound at 10 ug/mL, detection with cryptate labelled Fc specific anti human IgG; positive control.
Experimental: as §4
For assay [11], the target named is T1, Recombinant human Avi_PCSK9_Flag_His. Put plainly: HTRF epitope competition: unlabelled compound titrated against a DyLight 650-labelled anti-PCSK9 antibody for biotinylated human PCSK9; % specific binding [panel F].
Experimental: as §1, §2
For assay [12] the target is unchanged. Put plainly: HTRF epitope competition: unlabelled compound titrated against a DyLight 650-labelled anti-PCSK9 antibody for biotinylated human PCSK9; % specific binding [panel E]. The source holds these as a separate data set.
Experimental: as §1, §2
Assay [13] shares this target. Nature of the assay: HTRF epitope competition: unlabelled compound titrated against a DyLight 650-labelled anti-PCSK9 antibody for biotinylated human PCSK9; % specific binding [panel F]. The source holds these as a separate data set.
Experimental: as §1, §2

Changes are numbered by the printed parent chain. Where two headings read alike, the source gives them in different places.

T2 sequence (Q9NZQ7 19-238 limits assumed): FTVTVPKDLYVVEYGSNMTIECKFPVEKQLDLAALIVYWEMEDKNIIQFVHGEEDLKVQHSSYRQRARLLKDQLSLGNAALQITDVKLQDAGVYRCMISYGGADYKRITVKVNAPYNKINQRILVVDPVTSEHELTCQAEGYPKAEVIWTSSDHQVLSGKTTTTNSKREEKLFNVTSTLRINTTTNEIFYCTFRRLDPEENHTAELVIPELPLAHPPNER

B1: PC9#3 GLP-1 analogue light chain fusion (antibody, IgG1)
VH: EVQLVESGGGLVQPGGSLRLSCAASGFTFNNYAMNWVRQAPGKGLDWVSTISGSGGTTNYADSVKGRFIISRDSSKHTLYLQMNSLRAEDTAVYYCAKDSNWGNFDLWGRGTLVTVSS
VL: HGEGTFTSDVSSYLEEQAAKEFIAWLVKGGGGGGGSGGGGSGGGGSADIVMTQSPDSLAVSLGERATINCKSSQSVLYRSNNRNFLGWYQQKPGQPPNLLIYWASTRESGVPDRFSGSGSGTDFTLTISSLQAEDVAVYYCQQYYTTPYTFGQGTKLEIK
notes: IgG1-TM; descriptive name; also called light chain peptide antibody fusion of PC9#3
For B1, the “IC50 (read off the curve)” value in [1] was about 400 pM.

B2: PC9#3_DSB7_V19A (antibody, IgG1)
VH: B1 VH
VL: HGEGTFTSDLSKQMEEECARLFIEWLKNGGPSSGAPPPGCGGGGGSGGGGSGGGGSADIVMTQSPDSLAVSLGERATINCKSSQSVLYRSNNRNFLGWYQQKPGQPPNLLIYWASTRESGVPDRFSGSGSGTDFTLTISSLQAEDVAVYYCQQYYTTPYTFGQGTKLEIK
notes: IgG1-TM
Regarding B2, the binding result in assay [2] was “binds”.

B3: PC9#1 GLP-1 analogue light chain fusion (antibody, IgG1)
VH: QVQLVQSGAEVKKPGASVKVSCKASGYTFTSYYMHWVRQAPGQGLEWMGEISPFGGRTNYNEKFKSRVTMTRDTSTSTVYMELSSLRSEDTAVYYCARERPLYASDLWGQGTTVTVSS
VL: HGEGTFTSDVSSYLEEQAAKEFIAWLVKGGGGGGGSGGGGSGGGGSADIQMTQSPSSLSASVGDRVTITCRASQGISSALAWYQQKPGKAPKLLIYSASYRYTGVPSRFSGSGSGTDFTFTISSLQPEDIATYYCQQRYSLWRTFGQGTKLEIK
notes: IgG1-TM; peptide-linker at the N-terminus of VL; descriptive name; also called light chain peptide antibody fusion of PC9#1
With B3, the “IC50 (read off the curve)” value in assay [3] was about 100 pM.

B4: HS9_DSB7_V19A_L1 (antibody, IgG1)
VH: B3 VH with F54S, R57S, N59S, E62Q, K65Q, S66G
light: not shown
notes: VH see m27; IgG1-TM
Take B4: the binding result in [4] was “binds”.

B5: HS9_DSB7_V19A_L2 (antibody, IgG1)
VH: B3 VH with F54S, R57S, N59S, E62Q, K65Q, S66G
light: not shown
For the molecule B5, in assay [4], the binding result is recorded as “binds”.

B6: HS9_DSB7_V19A_L0 (antibody, IgG1)
VH: B3 VH with F54S, R57S, N59S, E62Q, K65Q, S66G
light: not shown
notes: VH see m27; IgG1-TM
As for B6, the binding result in assay [4] is listed as “binds”.

B7: PC9#7 GLP-1 analogue heavy chain fusion (antibody, IgG1)
VH: HGEGTFTSDVSSYLEEQAAKEFIAWLVKGGGGGGGSGGGGSGGGGSAQVQLVQSGAEVKKPGESLKISCKGSGYSFTNYWISWVRQMPGKGLEWMGIIYPGDSYTNYSPSFQGQVTISADKSISTAYLQWSSLKASDTAMYYCARDYWYKPLFDIWGQGTLVTVSS
VL: not shown
notes: IgG1-TM; descriptive name; also called heavy chain peptide antibody fusion of PC9#7
Turning to B7, the “IC50 (read off the curve)” value in [5] is about 100 pM.

B8: PC9#1 GLP-1 analogue heavy chain fusion (antibody, IgG1)
VH: HGEGTFTSDVSSYLEEQAAKEFIAWLVKGGGGGGGSGGGGSGGGGSAQVQLVQSGAEVKKPGASVKVSCKASGYTFTSYYMHWVRQAPGQGLEWMGEISPFGGRTNYNEKFKSRVTMTRDTSTSTVYMELSSLRSEDTAVYYCARERPLYASDLWGQGTTVTVSS
VL: DIQMTQSPSSLSASVGDRVTITCRASQGISSALAWYQQKPGKAPKLLIYSASYRYTGVPSRFSGSGSGTDFTFTISSLQPEDIATYYCQQRYSLWRTFGQGTKLEIK
notes: IgG1-TM; peptide-linker at the N-terminus of VH; also called heavy chain peptide antibody fusion of PC9#1
With B8, the “IC50 (read off the curve)” value in [6] is about 60 pM.

B9: PC9#5 GLP-1 analogue light chain fusion (antibody, IgG1, V domains shown)
VH: EMQLVESGGGLVQPGGSLRLSCAASGFTFSSHWMKWVRQAPGKGLEWVANINQDGSEKYYVDSVKGRFTISRDNAKNSLFLQMNSLRAEDTAVYYCARDIVLMVYDMDYYYYGMDVWGQGTTVTVSS
VL: not shown
notes: IgG1-TM; descriptive name; also called light chain peptide antibody fusion of PC9#5
B9: the “IC50 (read off the curve)” value in [7] was about 6000 pM.

B10: PC9#5_DSB7_V19A (antibody, IgG1, V domains shown)
VH: B9 VH
VL: not shown
notes: IgG1-TM
Take B10: in [2], the binding result is given as “binds”.

B11: PC9#7 GLP-1 analogue light chain fusion (antibody)
VH: QVQLVQSGAEVKKPGESLKISCKGSGYSFTNYWISWVRQMPGKGLEWMGIIYPGDSYTNYSPSFQGQVTISADKSISTAYLQWSSLKASDTAMYYCARDYWYKPLFDIWGQGTLVTVSS
VL: HGEGTFTSDVSSYLEEQAAKEFIAWLVKGGGGGGGSGGGGSGGGGSADIVMTQSPDSLAVSLGERATINCRSSQSVLYSSNNKNYLAWYQQKPGQPPKLLIYWASTRESGVPDRFSGSGSGTDFTLTISSLQAEDVAVYYCQQYSSFPITFGQGTKVEIK
In the case of B11, the “IC50 (read off the curve)” value in assay [8] was about 1000 pM.

B12: Fusion 2.7A4 DSB7 V19A (antibody)
VH: EVQLVESGGGLVKPGGSLRLSCAASGFTFSTYSMNWVRQAPGKGLEWVSSISSSGDYIYYADSVKGRFTISRDNAKNSLYLQMNSLRAEDTAVYYCARDLVTSMVAFDYWGQGTLVTVSS
VL: HGEGTFTSDLSKQMEEECARLFIEWLKNGGPSSGAPPPGCGGGGGSGGGGSGGGGSASYELTQPPSVSVSPGQTARITCSGDALPQKYVFWYQQKSGQAPVLVIYEDSKRPSGIPERFSGSSSGTMATLTISGAQVEDEADYYCYSTDRSGNHRVFGGGTKLTVL
notes: Peptide-linker on the light chain of the anti-B7-H1 antibody
Turning to B12, in assay [9], the binding result is reported as “binds”.

B13: anti-B7-H1 antibody 2.7A4 (antibody, V domains shown)
VH: B12 VH
VL: SYELTQPPSVSVSPGQTARITCSGDALPQKYVFWYQQKSGQAPVLVIYEDSKRPSGIPERFSGSSSGTMATLTISGAQVEDEADYYCYSTDRSGNHRVFGGGTKLTVL
Turning to B13, the binding result in assay [10] is reported as “binds”.

B14: PC9#6 GLP-1 analogue light chain fusion (antibody, IgG1)
VH: QVQLVQSGAEVKKPGSSVKVSCKASGGTFNSHAISWVRQAPGQGLEWMGGINPILGIANYAQKFQGRVTITADESTSTAYMELSSLRSEDTAVYYCARHYEIQIGRYGMNVYYLMYRFASWGQGTLVTVSS
VL: HGEGTFTSDVSSYLEEQAAKEFIAWLVKGGGGGGGSGGGGSGGGGSADIQMTQSPSSLSASVGDRVTITCRASQGIRSALNWYQQKPGKAPKLLIYNGSTLQSGVPSRFSGSGSGTDFTLTISSLQPEDFAVYYCQQFDGDPTFGQGTKVEIK
notes: IgG1-TM; descriptive name; also called light chain peptide antibody fusion of PC9#6
Turning to B14, the binding result in [11] is recorded as “binds”.

B15: PC9#5 GLP-1 analogue heavy chain fusion (antibody, IgG1)
VH: HGEGTFTSDVSSYLEEQAAKEFIAWLVKGGGGGGGSGGGGSGGGGSAEMQLVESGGGLVQPGGSLRLSCAASGFTFSSHWMKWVRQAPGKGLEWVANINQDGSEKYYVDSVKGRFTISRDNAKNSLFLQMNSLRAEDTAVYYCARDIVLMVYDMDYYYYGMDVWGQGTTVTVSS
VL: not shown
notes: IgG1-TM; descriptive name; also called heavy chain peptide antibody fusion of PC9#5
As to B15, the “IC50 (read off the curve)” value in [12] was about 100 pM.

B16: PC9#6 GLP-1 analogue heavy chain fusion (antibody, IgG1)
VH: HGEGTFTSDVSSYLEEQAAKEFIAWLVKGGGGGGGSGGGGSGGGGSAQVQLVQSGAEVKKPGSSVKVSCKASGGTFNSHAISWVRQAPGQGLEWMGGINPILGIANYAQKFQGRVTITADESTSTAYMELSSLRSEDTAVYYCARHYEIQIGRYGMNVYYLMYRFASWGQGTLVTVSS
VL: DIQMTQSPSSLSASVGDRVTITCRASQGIRSALNWYQQKPGKAPKLLIYNGSTLQSGVPSRFSGSGSGTDFTLTISSLQPEDFAVYYCQQFDGDPTFGQGTKVEIK
notes: IgG1-TM; descriptive name; also called heavy chain peptide antibody fusion of PC9#6
In the case of B16, in [13], the “IC50 (read off the curve)” value was about 600 pM.

(Values after US20160369010A1 (AstraZeneca / MedImmune, published 2016).)
